Source: patent publication US20120065123A1, “Synthetic Antibodies” (priority 2009, published 2012)
Where no end group is shown, it is not given here.

Legend:
[1] = biological target: Tumor Necrosis Factor-alpha (TNF-α); assay: SPR equilibrium; against the TNF1 lead
[2] = biological target: Tumor Necrosis Factor-alpha (TNF-α); assay: SPR equilibrium, Biacore A100, TNF-α captured on chip
[3] = biological target: Tumor Necrosis Factor-alpha (TNF-α); assay: SPR screen at 50 µM peptide, Biacore A100
[4] = biological target: Tumor Necrosis Factor-alpha (TNF-α); assay: from SPR dissociation constants
transferrin [5] = assay: SPR steady state affinity model, Biacore T100, transferrin immobilised (9758 RU)
transferrin [6] = assay: peptide microarray, rank by score; with organic prewash
transferrin [7] = assay: peptide microarray, rank by score; no organic prewash
transferrin [8] = assay: SPR kinetics, transferrin immobilised
[9] = biological target: Tumor Necrosis Factor-alpha (TNF-α); assay: SPR kinetic fits of several sensorgrams
[10] = biological target: Tumor Necrosis Factor-alpha (TNF-α); assay: fluorescence anisotropy
[11] = biological target: Tumor Necrosis Factor-alpha (TNF-α); assay: SPR kinetic fits of sensorgrams
transferrin [12] = assay: SPR steady state
transferrin [13] = assay: SPR steady state, Biacore T100, transferrin immobilised
transferrin [14] = assay: against the TRF26 lead
transferrin [15] = assay: affinity characterization of the peptide; method not named
transferrin [16] = assay: as above; remark: listed apart in the source
transferrin [17] = assay: peptide microarray of about 10,000 peptides, rank by score (555 nm intensity squared over 647 nm intensity); no organic prewash

Sequence of Tumor Necrosis Factor-alpha (TNF-α) (P01375 77-233): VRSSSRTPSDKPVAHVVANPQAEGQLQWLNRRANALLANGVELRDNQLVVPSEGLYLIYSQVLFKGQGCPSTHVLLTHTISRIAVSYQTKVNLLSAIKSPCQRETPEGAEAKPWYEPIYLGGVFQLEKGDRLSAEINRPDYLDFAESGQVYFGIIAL
T100 sequence (P02787 20-698): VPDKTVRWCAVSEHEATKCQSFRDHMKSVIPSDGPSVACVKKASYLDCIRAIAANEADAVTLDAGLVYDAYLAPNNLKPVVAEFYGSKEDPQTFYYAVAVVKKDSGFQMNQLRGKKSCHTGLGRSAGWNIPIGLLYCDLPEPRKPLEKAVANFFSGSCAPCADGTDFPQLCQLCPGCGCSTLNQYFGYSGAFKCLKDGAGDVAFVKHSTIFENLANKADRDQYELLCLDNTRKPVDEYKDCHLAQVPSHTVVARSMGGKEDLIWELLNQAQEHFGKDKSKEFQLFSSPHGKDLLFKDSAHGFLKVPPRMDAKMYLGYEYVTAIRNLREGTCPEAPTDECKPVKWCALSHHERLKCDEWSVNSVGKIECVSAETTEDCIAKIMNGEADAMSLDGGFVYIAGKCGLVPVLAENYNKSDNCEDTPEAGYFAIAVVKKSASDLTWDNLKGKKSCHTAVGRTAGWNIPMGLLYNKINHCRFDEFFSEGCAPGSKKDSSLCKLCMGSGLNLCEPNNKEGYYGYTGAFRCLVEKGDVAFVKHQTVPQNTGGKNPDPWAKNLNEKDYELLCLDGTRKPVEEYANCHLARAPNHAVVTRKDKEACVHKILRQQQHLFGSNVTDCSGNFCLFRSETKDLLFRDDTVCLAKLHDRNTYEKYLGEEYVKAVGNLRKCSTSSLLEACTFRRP

In the case of FERYPLKMPWSFLQSRQGSC (modifications not checked) [TNF1 D4Y+M7K double mutant], the Kd Fold-Change Relative to Lead [1] is reported as 9.4 fold, the Binding ΔG (observed) [2] is reported as -6.54 kcal/mol and the Kd [2] is reported as 17 µM.

With FERDYLKMPWSFLQSRQGSC (modifications not checked) [TNF1 P5Y+M7K double mutant] the Kd Fold-Change Relative to Lead [1] was 5.8 fold, the Binding ΔG (observed) [2] was -6.24 kcal/mol and the Kd [2] was 27 µM.

FERYPLMMPWSFLQSRQGSC (modifications not checked) [TNF1 D4Y point-mutant] gave a Component Binding ΔG Contribution [1] of -0.74 kcal/mol, a Kd Fold-Change Relative to Lead [1] of 3.6 fold and a Binding ΔG [2] of -5.95 kcal/mol. The Kd [2] was 44 µM and the fold enhancement in SPR binding response relative to TNF1 [3] was > 15 fold.

FERSYLMMPWKFLQSRQGSC (modifications not checked) [TNF1 D4S+P5Y+S11K triple mutant] showed a Kd Fold-Change Relative to Lead [1] of 23 fold, a difference in observed binding energy against the P5Y+S11K mutant [4] of -0.72 kcal/mol and a Binding ΔG (observed) [2] of -7.03 kcal/mol. It also gave a Kd [2] of 7 µM.

In the case of FERSYLKMPWSFLQSRQGSC (modifications not checked) [TNF1 D4S+P5Y+M7K triple mutant], the Kd Fold-Change Relative to Lead [1] is reported as 11 fold, the Binding ΔG (observed) [2] is reported as -6.63 kcal/mol and the Kd [2] is reported as 14 µM.

Binder GHKVVPQRQMRHAYNRNGSC [TBPL025] has a Kd (transferrin [5]) of 150 µM.

GQTQFAMHRFQQWYKIKGSC [TRF20] showed a Rank -- prewash (transferrin [6]) of 289 rank and a Rank - non-prewash (transferrin [7]) of 18 rank.

HAYKGPGDMRRFNHSGMGSC [TRF22] showed a Rank -- prewash (transferrin [6]) of 61 rank and a Rank - non-prewash (transferrin [7]) of 711 rank.

Work on FERDYLMMPWKFLQSRQGSC (modifications not checked) [TNF1 P5Y+S11K double mutant] yielded a Kd Fold-Change Relative to Lead [1] of 6.6 fold, a Binding ΔG (observed) [2] of -6.63 kcal/mol and a Kd [2] of 24 µM.

B1: synbody comprising TRF-26 and TRF-23 (Example 9) (designed binder)
peptide 1: AHKVVPQRQIRHAYNRYGSG
peptide 2: FRGWAHIFFGPHVIYRGGSG
modifications: not fully specified (bridges); also: both C-termini joined to the alpha and epsilon amines of a lysine linker
B1 gave a Kd (transferrin [8]) of 0.15 µM.

FERSYLKMPWKFLQSRQGSC (modifications not checked) [TNF1-opt (D4S+P5Y+M7K+S11K quadruple mutant of TNF1)] was tested, and the Kd Fold-Change Relative to Lead [1] was 100 fold, the difference in observed binding energy against the D4S+P5Y+S11K mutant [4] was -0.94 kcal/mol and the difference in observed binding energy against the P5Y+M7K mutant [4] was -1.73 kcal/mol. The difference in observed binding energy against the P5Y+S11K mutant [4] was -1.66 kcal/mol, the Kd [9] was 0.7 µM and the Kd [10] was 1.1 µM. For the same binder, the Binding ΔG (observed) [2] was -7.97 kcal/mol, the Kd [2] was 1.6 µM and the koff [11] was 0.2 s⁻¹.

For AHKVVPQRQMRHAYSRYGSC [TBPM023], the Kd (transferrin [5]) was 11.6 µM and the fold improvement of affinity against the original peptide TRF26 (transferrin [12]) was > 10 fold.

Binder QYHHFMNLKRQGRAQAYGSC [TRF21] has a Rank -- prewash (transferrin [6]) of 5 rank, a Kd (transferrin [13]) of 60 µM and a Rank - non-prewash (transferrin [7]) of 84 rank.

For AHKVVPQRQIRFAYNRYGSC [TRF26 H12F point-mutant], the Component Binding ΔG Contribution (transferrin [14]) was -1.29 kcal/mol, the Kd Fold-Change Relative to Lead (transferrin [14]) was 8.8 fold and the Kd (transferrin [15]) was 9.8 µM. It also gave a Binding ΔG (transferrin [16]) of -6.85 kcal/mol and a Kd (transferrin [16]) of 9.7 µM.

For FERDPLMMPWKFLQSRQGSC (modifications not checked) [TNF1 S11K point-mutant], the Component Binding ΔG Contribution [1] was -0.82 kcal/mol, the Kd Fold-Change Relative to Lead [1] was 3.9 fold and the Binding ΔG [2] was -6.03 kcal/mol. The Kd [2] was 40 µM and the fold enhancement in SPR binding response relative to TNF1 [3] was > 15 fold.

KEDNPGYSSEQDYNKLDGSC [TRF19] was tested, and the Rank -- prewash (transferrin [6]) was 9600 rank, the Kd (transferrin [13]) was 150 µM and the Rank - non-prewash (transferrin [17]) was 5010 rank.

AHKVVPQRQIRHAYNRYGSC [TRF26] was tested, and the Rank -- prewash (transferrin [6]) was 436 rank, the Kd (transferrin [13]) was 100 µM and the Rank - non-prewash (transferrin [7]) was 596 rank. The Binding ΔG (transferrin [16]) was -5.56 kcal/mol and the Kd (transferrin [16]) was 85 µM.

Work on AHKVVYQRQIRFAYNRYGSC [TRF26 P6Y+H12F double mutant] yielded a Kd Fold-Change Relative to Lead (transferrin [14]) of 190 fold, a Binding ΔG (observed) (transferrin [16]) of -8.68 kcal/mol and a Kd (transferrin [16]) of 0.5 µM.

Work on FERDYLMMPWSFLQSRQGSC (modifications not checked) [TNF1 P5Y point-mutant] yielded a Component Binding ΔG Contribution [1] of -0.58 kcal/mol, a Kd Fold-Change Relative to Lead [1] of 2.7 fold and a Binding ΔG [2] of -5.79 kcal/mol. The Kd [2] was 58 µM and the fold enhancement in SPR binding response relative to TNF1 [3] was > 15 fold.

Work on APYAPQQIHYWSTLGFKGSC [TRF25] yielded a Rank -- prewash (transferrin [6]) of 603 rank, a Kd (transferrin [13]) of 60 µM and a Rank - non-prewash (transferrin [7]) of 736 rank.

AHKVVYQRQIRHAYNRYGSC [TRF26 P6Y point-mutant] showed a Component Binding ΔG Contribution (transferrin [14]) of -1.37 kcal/mol, a Kd Fold-Change Relative to Lead (transferrin [14]) of 10 fold and a Binding ΔG (transferrin [16]) of -6.93 kcal/mol. For the same binder, the Kd (transferrin [16]) was 8.6 µM.

FERDPLKMPWSFLQSRQGSC (modifications not checked) [TNF1 M7K point-mutant] showed a Component Binding ΔG Contribution [1] of -0.72 kcal/mol, a Kd Fold-Change Relative to Lead [1] of 2.8 fold and a Binding ΔG [2] of -5.93 kcal/mol. The Kd [2] was 57 µM and the fold enhancement in SPR binding response relative to TNF1 [3] was > 15 fold.

GHKVVPQRQIRHAYNRYGSC [TBPL005] gave a Kd (transferrin [5]) of 150 µM.

SVKPWRPLLTGNRWLNSGSC [TRF24] gave a Rank -- prewash (transferrin [6]) of 958 rank, a Kd (transferrin [13]) of 50 µM and a Rank - non-prewash (transferrin [7]) of 71 rank.

In the case of LDPLFNTSIMVNWHRWMGSC [TRF27], the Rank -- prewash (transferrin [6]) is reported as 3320 rank and the Rank - non-prewash (transferrin [7]) is reported as 1290 rank.

FERYPLMMPWKFLQSRQGSC (modifications not checked) [TNF1 D4Y+S11K double mutant] showed a Kd Fold-Change Relative to Lead [1] of 17 fold, a Binding ΔG (observed) [2] of -6.67 kcal/mol and a Kd [2] of 9.3 µM.

Binder FRGWAHIFFGPHVIYRGGSC [TRF23] has a Rank -- prewash (transferrin [6]) of 2090 rank, a Kd (transferrin [13]) of 50 µM and a Rank - non-prewash (transferrin [7]) of 2720 rank.
